Laboratory results as given in the RNAGym collection of RNA variant scans (doi:10.1073/pnas.2313332121).

B1: TPR t1 (parent)
chain: GACCAAUCUGCCCUCAGAGCUCGAGAACAUCUUCGGAUGCAGAGGAGGCAGGCUUCGGUGGCGCGAUAGCGCCAACGUCCUCAACCUCCAAUGCAUCCCACCACAUGAUGAUGCCUGAAGAGCCUUGGUUUUUUG

Variants of: B1
Assay: polymerase ribozyme fitness, log enrichment relative to wild type (log ratio); higher = more active; in vitro selection for triplet polymerase activity
In short: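 Fitness compares each genotype's enrichment to that of the wild type on a logarithmic scale, averaging replicates with inverse-variance weights. The logarithm is base 2. Enrichment came from Illumina sequencing of input and output libraries after one triplicate round of in vitro selection, which included frozen incubation at −7 °C, of PCR-built, transcribed mutant libraries of each subunit of a heterodimeric triplet polymerase ribozyme. Only genotypes with ≥10 input reads and ≥1 read per output were kept.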

| Variant | polymerase ribozyme fitness (log ratio) |
| --- | --- |
| GACCAAUCUGCCCUCAGAGCUCGAGAACAUCUUCGGAUGCGGAGGAGGCAGGCUUCGGUGGCGCGAUAGCGCAAACGUCCUAAACCUCCAAUGCAUCCCACCACAUGAUGAUGCAUGAAGAGCCUUGGUUUUUUU [A41G C73A C82A C115A G135U] | -2.65 |
| GACCAAUCUGCCCUCAGAGCUCGAGAACAUCUUCGGAUGCGGAGGAGGCAGGCUUCGGUGGCGCGAUAGCGCCAACGUCCACAACCUCCAAUGCAUCCCACCACAUGAUGAUGCCUGAAGAGCCUUGGUUUUUUG [A41G U81A] | -1.07 |
| GACCAAUCUGCCCUCAGAGCUCGAGAACAUCUUCGGAUGCUGAGGAGGCAGGCUUCGGUGGCGCGAUAGCGCCAACGUCAUCAACCUCCAAUGCAUCCCACCAUAUGAUGAUGCCUGAAGAGCCUUGGUUUUUUG [A41U C80A C104U] | -6.34 |
| GACCAAUCUGCCCUCAGAGCUCGAGAACAUCUUCGGAUGCGGAGGAGGCAGGCUUCGGUGGCGCGAUAACGCCAACGUCCUCAAACUCCAAUGCAUCCCACCACAUGAUGAUGCCUGAAGAGCCUUGGUUUUUUG [A41G G69A C85A] | -5.81 |
| GACCAAUCUGCCCUCAGAGCUCGAGAACAUCUUCGGAUGCGGAAGAGGCAGGCUUCGGUGGCGCGAUAGCGCCAACGUCCUCAACCUCCAAUGCAUCCCACCACAUGAUGAUGCCUGAAGAGUCUUGGUUUUUUG [A41G G44A C123U] | 0.224 |
| GACCAAUCUGCCCUCAGAGCUCGAGAACAUCUUCGGAUGCUGAGGAGGCAGGCUUAGGUGGCGCGAUAGCGCCAACGUCCUCAACCUCCAAUGCAUCCCACCACAUGAUGAUGCCUGAAGAGCCUUGGUUUUUUG [A41U C56A] | -1.52 |
| GACCAAUCUGCCCUCAGAGCUCGAGAACAUCUUCGGAUGCGGAGGAGGCAGGCUUCGGUGGCGCGAUAGCGCCAACGUCCUCAACCUCCAAUGCAUCCCACCACAAGAUGAUGCCUGAAGAGCCUUGGUUUUUUG [A41G U106A] | -0.451 |
| GACCAAUCUGCCCUCAGAGCUCGAGAACAUCUUCGGAUGCUGAGGAGGCAGGCUUCGGUGGCGCGAUAGCGGCAACGUCCUCAACCUCCAAUGCAUCCCACCACAUGAUGAUGCCUCAAGAGCCUUGGUUUUUUG [A41U C72G G117C] | -5.06 |
| GACCAAUCUGCCCUCAGAGCUCGAGAACAUCUUCGGAUGCUGAGGAGGCAGGCUUCGGUGGCGCGAUAGCGCCAACGUCCUCCACCUCCAAUGCAUCCCACCACAUGAUAAUGCCUGAAGAGCCUUGGUUUUUUG [A41U A83C G110A] | -4 |
| GACCAAUCUGCCCUCAGAGCUCGAGAACAUCUUCGGAUGCGGAGGAGGCAGGCUUCGGUGGCGCGAUAGUGCCAACGUCCUAAACCUCCAAUGCAUCCCACCACAUGAUGAUGCCUGAAGAGCCGUGGUUUUUUG [A41G C70U C82A U125G] | -1.79 |
| GACCAAUCUGCCCUCAGAGCUCGAGAACAUCUUCGGAUGCGGAGGAGGCAGCCUUCGUUGGAGCGAUAGCGCCAACGCCCUCAACCUCCAAUGCAUCCCACCACAUGAUGCUGCCUGAAGAGCCUUAGUUUUUUG [A41G G52C G58U C62A U78C A111C G127A] | -4.32 |
| GACCAAUCUGCCCUCAGAGCUCGAGAACAUCUUCGGAUGCUGAGGAGGUAGGCUUCGGUGGCGCGAUAACGCCAACGUCCUCAACCUCCAAUGCAUCCCACCACAUGAUGAUGCCUGAAGAGCCUUGGUUUUUUG [A41U C49U G69A] | -6.56 |
| GACCAAUCUGCCCUCAGAGCUCGAGAACAUCUUCGGAUGCGGAGGAGGCAGGCUUCGGUGGCGCGAUAGCGCCAACGUCCUCAACCUCCAAUGCAUCCUACCACAUGAUGAUGCCUGAAGAGCAUUGGUUUUUUG [A41G C99U C124A] | -2.72 |
| GACCAAUCUGCCCUCAGAGCUCGAGAACAUCUUCGGAUGCUGAGGAGGCAGGCUUCGGUGGCGCGAUAGCGGCAACGUCCUCAACCUCCCAUGCAUCCCACCACAUGAUGAUGCCUGAAGAGCCUUGGUUUUUUG [A41U C72G A90C] | -2.3 |
| GACCAAUCUGCCCUCAGAGCUCGAGAACAUCUUCGGAUGCGGAGAAGGCCGGCUUCGGUGGCGCGAUAGCGCCAACGUCCUCAACCUCCAAUGCAUCCCACCACAUGAUGAUGCCUGAAGAGUCUUGGUUUUUUG [A41G G45A A50C C123U] | -0.694 |
| GACCAAUCUGCCCUCAGAGCUCGAGAACAUCUUCGGAUGCUGAGGAGGCAGGCUUCGGUGGGGCGAUAGCGCCAACGUCCUCAACCUCCAAUGCAUCCCACCACAUGAUGAUGCCUGAAGAGCCUUGGUUUUUUG [A41U C62G] | -3.92 |
| GACCAAUCUGCCCUCAGAGCUCGAGAACAUCUUCGGAUGCUGAGGAGGCAGGCUUCGGUGGCGCGGUAGCCCCAACGACCUCAACCUCCAAUGCAUCCCACCACAUGAUGAUGCCUGAAGAGCCUUGGUUUUUUG [A41U A66G G71C U78A] | -5.05 |
| GACCAAUCUGCCCUCAGAGCUCGAGAACAUCUUCGGAUGCGGAGGAGGCAGGCUUCGGUGGCGCGAUAGCGCCAACGUCCUCAACCUCCAAUGCAUCCCACCACAUGAUGACGCCUGAAGAGCCUUGGUUUUUUG [A41G U112C] | 0.756 |
| GACCAAUCUGCCCUCAGAGCUCGAGAACAUCUUCGGAUGCUGUGGAGGCAGGCUUCGGUGGCGCGAUAGCGGCAACCUCCUCAACCUCCAAUACAUCCCACCACAUGAUGAUGCCUGAAGAGCGUUGGUUAUUUG [A41U A43U C72G G77C G93A C124G U131A] | -0.181 |
| GACCAAUCUGCCCUCAGAGCUCGAGAACAUCUUCGGAUGCGGAGGAGGCAGGCUUCGGUGUCGCGAUAGCGCCAACGUCCUCAACCUCCAAUGUAUCCCACCACAUGAUGAUGCCUGAAGAGCCUUGGUUUUUUG [A41G G61U C94U] | -0.449 |
| GACCAAUCUGCCCUCAGAGCUCGAGAACAUCUUCGGAUGCUGAGGAGGAAGCCUUCGGUGGCGCGAUAGCGUCAACGUCCUCAACCUCCAAUGCAUCCCACCACAUGAUGAUGCCUGAAGAGCCUUGGUUUUUUG [A41U C49A G52C C72U] | -3.5 |

| Variant | polymerase ribozyme fitness (log ratio) |
| --- | --- |
| GACCAAUCUGCCCUCAGAGCUCGAGAACAUCUUCGGAUGCUGAGGAGGCAGGCUUCGGUGGCGCGAUAGCGCCAACGUCCUGAACCUCCAAUGCAUCCCACCACAUGAUGAUGCCUGAAGAGCCUUGGUUUUUUG [A41U C82G] | -2.37 |
| GACCAAUCUGCCCUCAGAGCUCGAGAACAUCUUCGGAUGCUGAGGAGGCAGGCUUCGGUGGCGUGAUAGCGCCAACGUCCUCAACCUCCAAUGUAUCCCACCACAUGAUGAUGCCUGAAGAGCCUUGGUUUUGUG [A41U C64U C94U U133G] | -1.82 |
| GACCAAUCUGCCCUCAGAGCUCGAGAACAUCUUCGGAUGCGGAGGAGGCAGGCUUCGGUGACGCGAUAGCGCCAACGUCCUCAACCUCCAAUGCAUCCCACCACAUGAUGAUGCCUGAAGAGCCUUGGUUUUUUG [A41G G61A] | -0.141 |
| GACCAAUCUGCCCUCAGAGCUCGAGAACAUCUUCGGAUGCGGAGUAGGCAGGCUUGGGUGGCGCGAUAGCGCCAACGUCCUCAACCUCCAAUGCAUCCCACCACAUGAUGAUGCCUGAAGAGCAUUGGUUUUUUG [A41G G45U C56G C124A] | -0.22 |
| GACCAAUCUGCCCUCAGAGCUCGAGAACAUCUUCGGAUGCUGAGGAGGCAGGCUUCGGUGGCGCGAUAGCGCCAACGUCCUUAACCUCCAAUGCAUCCCACCACAUGAUGAUCCCUGAAGAGCCUUGGUUUUUUG [A41U C82U G113C] | -2.61 |
| GACCAAUCUGCCCUCAGAGCUCGAGAACAUCUUCGGAUGCUGAGGAGGCAGGCUUCGGUGGCGCGAUAGCGGCAACGUCCUCAACCUCCAAUGCAUCCCACCACAUGAUGAUGCCUGAAGAGCCGUGGUUUUGUG [A41U C72G U125G U133G] | -2.77 |
| GACCAAUCUGCCCUCAGAGCUCGAGAACAUCUUCGGAUGCGGAGGAGGCAGGCUUCAGUGGCGCGAUAGCGCCAACGUCCUCAACCUCCAAUGCAUCCCACCACACGAUGAUGCCUGAAGAGCCUUGGUUUUUUG [A41G G57A U106C] | -1.93 |
| GACCAAUCUGCCCUCAGAGCUCGAGAACAUCUUCGGAUGCGGAGGAGGCAGGCUUCGGUGGCGCGAUAGCGCUAACGUCCUCAACCUCCAAUGCAUCCCACCACAUGAUGAUGCCUGAAGAGCCCUGGUUUUUUG [A41G C73U U125C] | -2.74 |
| GACCAAUCUGCCCUCAGAGCUCGAGAACAUCUUCGGAUGCGGAGGAGGCAGGCUUCGGUGACGCGAUAGCGCCAACGUCCUCAACCUCCAAUGCAUCCCAUCACAUGAUGAUGCCUGAAGAGCCUUGGUUUUGUG [A41G G61A C101U U133G] | -1.01 |
| GACCAAUCUGCCCUCAGAGCUCGAGAACAUCUUCGGAUGCUGAGGAGGCAGGCUUCGGUGGCGCGGUAGCGCCAACGUCCUCAACCUCCAAAGCAUCCCACCACAUGAUGAUGCCUGAAGAGCCUUGGUUUUUUG [A41U A66G U92A] | -2.28 |
| GACCAAUCUGCCCUCAGAGCUCGAGAACAUCUUCGGAUGCGGAGGAGGGAGGCUUCGGUGGCGCGAUAGCGCCAACGUCCUUAAUCUCCAAUGCAUCCCACCACAUGAUGAUGCCUGAAGAGCCUUGGUUGUUUG [A41G C49G C82U C85U U131G] | -1.67 |
| GACCAAUCUGCCCUCAGAGCUCGAGAACAUCUUCGGAUGCUGAGGAGGCAGGCUUCGGUGGCGCGAUAGCGCCAACGUCCUCAACCUCCCAUGCAUCCCACCACAUGAUGAUGCCUGAAGAGCGUUGGUUUUUUG [A41U A90C C124G] | 0.559 |
| GACCAAUCUGCCCUCAGAGCUCGAGAACAUCUUCGGAUGCUGAGGAGGCAGGCUUCGGUGGCGCGAUAGCGACAACGUCCUCAACCUCCAAUGCAUCCCACCACAUGAUGAUGCCUGAAGAGCCUUGGUUUUUUG [A41U C72A] | -1.82 |
| GACCAAUCUGCCCUCAGAGCUCGAGAACAUCUUCGGAUGCUGAGGAGGCAGGCUUCGGUGGCGCGAUAGCGCCAACGUCCUCAACCUCCCAUGCAUCCCACCACAUGAUGAUGCGUGAAGAGCCUUGGUUUUUUG [A41U A90C C115G] | -4.39 |
| GACCAAUCUGCCCUCAGAGCUCGAGAACAUCUUCGGAUGCUGAGGAGGCAGGCUUCGGUGGCGCGAUAGCGCCAACGUCCUCAACCUCCGAUGCAUCCCACCACAUGAUGAUGCCUGAAGAGCCUUGGUUUUUUG [A41U A90G] | -0.36 |
| GACCAAUCUGCCCUCAGAGCUCGAGAACAUCUUCGGAUGCGGAGGAGGCAGGCAUCGGUGCCGCGAUAGCGCCAACGUCCUCAACCUCCAAUGCAUCCCACCACAUGAUGAUGCCUGAAGAGCCUUGGUUUUUUG [A41G U54A G61C] | -2.03 |
| GACCAAUCUGCCCUCAGAGCUCGAGAACAUCUUCGGAUGCUGGGGAGACAGGCUUCGGUGGCACGAUAGCGCCAACGUCCUCAACCUCCGAUGCAUCCCACCAUAUGAUGAUGCCUGAAUAGCCUUGGUUUUUUG [A41U A43G G48A G63A A90G C104U G120U] | -4.4 |
| GACCAAUCUGCCCUCAGAGCUCGAGAACAUCUUCGGAUGCUGAGGAGGCAGGCUUCGGUGGCGUGAUAGCGCCAACGUCCUCAACCUCCAAUGCAUCCCACCACAUGAUGAUGCCUGAAGAGCCUUGGUUUUUUG [A41U C64U] | -1.24 |
| GACCAAUCUGCCCUCAGAGCUCGAGAACAUCUUCGGAUGCUGAGGAGGCAGGCUUCGGUGGCGCGAUAGCGCCAAAGUCCACAACCUCCAAUGCAUCCCACCACAUGAUGAUGCCUGAAGAGCCUUGGUUUUUUG [A41U C76A U81A] | -1.77 |
| GACCAAUCUGCCCUCAGAGCUCGAGAACAUCUUCGGAUGCGGAGGAGGCAGGCUUCGGUGGCGCGAUAGCGCCAACGUCCUCAACCUCCAAUGCAUCCAACCACAUGAUGAUGCCUGAGGAGCCAUGGUUUUUUG [A41G C99A A119G U125A] | -6.99 |
| GACCAAUCUGCCCUCAGAGCUCGAGAACAUCUUCGGAUGCUGAGGAGGCAGGCUUCGGUGGCGCGAUAGCGCCAACGUCCUCAACCUCCAAUGCAUCCCCCCACAAGAUGAUGCCUGAAGAGCCUUGGUUUCUUG [A41U A100C U106A U132C] | -2.89 |
